Experimental data from article PMC12852372, “Phosphorylation-driven conformational switching of the ArnA–ArnB complex involved in archaeal motility regulation” (Frontiers in Microbiology, 2025).

Biological target: T1, phosphorylated ArnB (ArnB~P), phosphorylated by the kinase ArnC (Sulfolobus acidocaldarius, UniProt Q4J9H3 2-380, phosphothreonine at T353, T363 and T375 (almost complete within the first 5 min with ArnC); phosphothreonine at T322 and T335 only after 15 min)
T1 construct: ArnB of Sulfolobus acidocaldarius, Saci_1211; also called tagged ArnB; source: E. coli BL21(DE3) Rosetta; phosphorylated by ArnC in the mixed lysate (ATP, MnCl2, 55 °C, 5-60 min); in lysate for the pull-downs; purified (Ni-NTA, SEC) for HDX-MS; not shown: His6, C-terminal, kept
T1 sequence: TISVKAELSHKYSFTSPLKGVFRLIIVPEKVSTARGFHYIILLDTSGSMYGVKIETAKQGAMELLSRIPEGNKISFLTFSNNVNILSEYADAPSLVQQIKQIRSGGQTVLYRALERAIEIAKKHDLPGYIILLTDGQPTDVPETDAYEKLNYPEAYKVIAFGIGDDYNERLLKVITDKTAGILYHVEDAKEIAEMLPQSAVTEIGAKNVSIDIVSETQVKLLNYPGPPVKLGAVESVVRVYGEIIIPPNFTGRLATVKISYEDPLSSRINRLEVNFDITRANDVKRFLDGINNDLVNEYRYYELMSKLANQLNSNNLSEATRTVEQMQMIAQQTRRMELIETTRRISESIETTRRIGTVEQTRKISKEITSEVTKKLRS
Test: HDX-MS; ArnA, ArnB, ArnB~P and ArnA/ArnB~P (isolated by Ni-NTA via the His6 tag of ArnB, then SEC); 50 μM stocks in 20 mM Tris-Cl pH 8.0, 150 mM NaCl; 25 °C; 10-10,000 s
Conditions: both partners purified

binding result: binds
B1: ArnA (Saci_1210) (natural protein, Sulfolobus acidocaldarius)
chain: TWKCNLCGYENDDDALFCIKCGAQKSSEAQQLPQQQPSEPQAQGVVTQQQVVTNPPVQAQVATPQQPAQQPVLPQPEPAQPQPVSSTPAPQQASQPTNRYYIYFIQTPNENLVNKKVLLNFDLFPSVSMGRSPENIVIVPDSEVSRKHAVIYLDNSELYIEDLNSTNGTYVYDGKQFTPIKGKQKIEPNSIIKLGNQTIVRILKE
notes: ArnA of Sulfolobus acidocaldarius, Saci_1210; N-terminal zinc-finger (ZnF) domain, disordered linker (S28-N99) and C-terminal FHA domain; In the crystal (PDB 8S05) only the ZnF domain (P16-K42) is defined by density; also called StrepII-tagged ArnA; source: E. coli BL21(DE3) Rosetta; purified (heat treatment, Ni-NTA, SEC) for crystals, SAXS and HDX-MS; co-expressed with His6-ArnB, in lysate, for …
